Data on one protein can be found in publication PMC2686680, “Chibby forms a homodimer through a heptad repeat of leucine residues in its C-terminal coiled-coil motif” (BMC Molecular Biology, 2009).

This series deals with the molecule itself. Nature of the series: SEC; His-Cby purified from stable HEK293T on Superdex 75 FPLC, 20 mM Tris-HCl pH 8.0, 1.0 M NaCl, 1 mM EDTA, 2 mM DTT, 2 mM betaine-HCl, 0.02% Triton X-100, 5% glycerol; fractions blotted with anti-Cby. On the technique in general: SEC sorts molecules by how far they enter the pores of the column.

B1: His-tagged Cby wild type (natural protein, human, UniProt Q9Y3M2 1-126, looked up)
chain: MPFFGNTFSPKKTPPRKSASLSNLHSLDRSTREVELGLEYGSPTMNLAGQSLKFENGQWIAETGVSGGVDRREVQRLRRRNQQLEEENNLLRLKVDILLDMLSESTAESHLMEKELDELRISRKRK
notes: Chibby (Cby), human, 126 amino acids; Cby cDNA in pcDNA4/HisMax A; the vector pcDNA4/HisMax A probably adds further N-terminal residues besides the His tag (surmise); also called His-Cby; His-CbyWT; source: transiently transfected for cross-linking), purified (nickel beads / Ni-NTA)
For orientation: stoichiometry N means the number of molecules, sites or subunits per partner or assembly. In the case of B1, the “stoichiometry N” value is 2.
